Source: publication PMC9482650, “Quantitative fragmentomics allow affinity mapping of interactomes” (Nature Communications, 2022)

Legend:
Experiment in all cases: holdup assay
Parameters in all cases: key: below the threshold = too weak to quantify, mostly under pKd 3.1 to 4
Conditions in all cases: plain residues with an end cap or a label only (N-terminal biotin on a linker: ttds)
SHROOM4, Q9ULL8 = target: T1, SHROOM4, Q9ULL8
T1 sequence (Q9ULL8 5-102, limits assumed, looked up): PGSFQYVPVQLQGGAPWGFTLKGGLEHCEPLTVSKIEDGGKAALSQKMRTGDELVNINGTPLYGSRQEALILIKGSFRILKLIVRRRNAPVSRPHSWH

PDZD7_1, Q9H5P4 = target: T2, PDZD7_1, Q9H5P4
T2 sequence (Q9H5P4 81-178, limits assumed, looked up): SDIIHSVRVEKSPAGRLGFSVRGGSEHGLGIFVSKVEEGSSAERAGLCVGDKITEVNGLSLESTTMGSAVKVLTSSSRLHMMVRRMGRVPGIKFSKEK

MAGI1_5, Q96QZ7 = target: MAGI1_5, Q96QZ7
Sequence of MAGI1_5, Q96QZ7 (Q96QZ7 986-1098): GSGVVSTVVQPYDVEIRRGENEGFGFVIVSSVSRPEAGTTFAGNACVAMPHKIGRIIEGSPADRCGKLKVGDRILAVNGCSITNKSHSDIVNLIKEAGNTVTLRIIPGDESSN

MPDZ_7, O75970 = target: T3, MPDZ_7, O75970
T3 sequence (O75970 1146-1253, limits assumed, looked up): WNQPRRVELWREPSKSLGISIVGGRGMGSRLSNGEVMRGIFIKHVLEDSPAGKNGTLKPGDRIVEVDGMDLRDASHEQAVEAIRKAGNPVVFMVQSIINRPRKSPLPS

SCRIB_4, Q14160 = target: SCRIB_4, Q14160
Sequence of SCRIB_4, Q14160 (Q14160 1095-1204): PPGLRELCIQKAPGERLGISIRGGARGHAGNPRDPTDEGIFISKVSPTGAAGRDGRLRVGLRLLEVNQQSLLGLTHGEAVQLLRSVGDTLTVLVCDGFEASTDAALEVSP

MPP1, Q00013 = target: T4, MPP1, Q00013
T4 sequence (Q00013 66-162, limits assumed, looked up): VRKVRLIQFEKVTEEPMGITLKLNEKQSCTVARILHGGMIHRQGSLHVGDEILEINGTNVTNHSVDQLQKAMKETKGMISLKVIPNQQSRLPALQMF

PDZD4, Q76G19 = target: T5, PDZD4, Q76G19
T5 sequence (Q76G19 125-224, limits assumed, looked up): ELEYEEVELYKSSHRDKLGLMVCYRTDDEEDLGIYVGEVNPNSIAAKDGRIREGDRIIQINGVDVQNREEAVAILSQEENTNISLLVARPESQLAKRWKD

PARD3B_2, Q8TEW8 = target: PARD3B_2, Q8TEW8
Sequence of PARD3B_2, Q8TEW8 (Q8TEW8 376-471): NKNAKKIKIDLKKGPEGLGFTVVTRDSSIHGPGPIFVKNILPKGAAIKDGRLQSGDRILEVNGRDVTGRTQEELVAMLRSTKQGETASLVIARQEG

PREX1_1, Q8TCU6 = target: PREX1_1, Q8TCU6
Sequence of PREX1_1, Q8TCU6 (Q8TCU6 608-718): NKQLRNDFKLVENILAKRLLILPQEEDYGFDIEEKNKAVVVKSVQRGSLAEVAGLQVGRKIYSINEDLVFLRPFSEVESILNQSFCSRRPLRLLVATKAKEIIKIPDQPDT

PDLIM3, Q53GG5 = target: T6, PDLIM3, Q53GG5
T6 sequence (Q53GG5 1-94, limits assumed, looked up): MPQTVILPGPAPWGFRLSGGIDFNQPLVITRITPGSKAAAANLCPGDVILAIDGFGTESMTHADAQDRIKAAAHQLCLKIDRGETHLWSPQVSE

USH1C_1, Q9Y6N9 = target: T7, USH1C_1, Q9Y6N9
T7 sequence (Q9Y6N9 82-179, limits assumed, looked up): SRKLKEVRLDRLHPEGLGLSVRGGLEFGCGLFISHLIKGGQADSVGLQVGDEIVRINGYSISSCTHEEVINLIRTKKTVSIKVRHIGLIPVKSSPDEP

USH1C_3, Q9Y6N9 = target: T8, USH1C_3, Q9Y6N9
T8 sequence (Q9Y6N9 447-547, limits assumed, looked up): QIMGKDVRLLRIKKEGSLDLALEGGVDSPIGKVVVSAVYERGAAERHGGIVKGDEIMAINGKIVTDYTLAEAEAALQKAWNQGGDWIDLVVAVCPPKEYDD

TJP3_1, O95049 = target: T9, TJP3_1, O95049
T9 sequence (O95049 6-103, limits assumed, looked up): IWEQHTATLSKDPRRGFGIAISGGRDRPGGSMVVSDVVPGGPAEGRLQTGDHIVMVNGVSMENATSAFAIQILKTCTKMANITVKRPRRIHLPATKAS

IL16_2, Q14005 = target: IL16_2, Q14005
Sequence of IL16_2, Q14005 (Q14005 350-450): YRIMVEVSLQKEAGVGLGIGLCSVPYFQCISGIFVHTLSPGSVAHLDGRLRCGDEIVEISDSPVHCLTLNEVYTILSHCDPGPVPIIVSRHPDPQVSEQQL

MPDZ_2, O75970 = target: T10, MPDZ_2, O75970
T10 sequence (O75970 252-347, limits assumed, looked up): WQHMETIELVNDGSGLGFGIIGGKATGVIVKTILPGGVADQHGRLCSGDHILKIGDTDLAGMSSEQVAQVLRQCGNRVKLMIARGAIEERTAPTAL

DVL1, O14640 = target: T11, DVL1, O14640
T11 sequence (O14640 246-333, limits assumed, looked up): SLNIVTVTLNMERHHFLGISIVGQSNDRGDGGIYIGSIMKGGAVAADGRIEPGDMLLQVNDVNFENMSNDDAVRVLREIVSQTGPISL

PTPN13_2, Q12923 = target: PTPN13_2, Q12923
Sequence of PTPN13_2, Q12923 (Q12923 1363-1462): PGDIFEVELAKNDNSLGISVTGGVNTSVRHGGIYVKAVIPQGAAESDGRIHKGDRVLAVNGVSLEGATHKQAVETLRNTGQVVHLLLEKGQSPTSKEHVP

MPDZ_3, O75970 = target: T12, MPDZ_3, O75970
T12 sequence (O75970 372-473, limits assumed, looked up): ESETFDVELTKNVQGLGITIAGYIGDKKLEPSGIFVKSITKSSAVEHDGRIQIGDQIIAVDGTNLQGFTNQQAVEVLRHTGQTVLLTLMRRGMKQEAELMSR

PTPN4, P29074 = target: T13, PTPN4, P29074
T13 sequence (P29074 512-599, limits assumed, looked up): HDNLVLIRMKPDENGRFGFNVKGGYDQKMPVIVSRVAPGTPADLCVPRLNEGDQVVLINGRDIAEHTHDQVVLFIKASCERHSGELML

PDZRN3_2, Q9UPQ7 = target: T14, PDZRN3_2, Q9UPQ7
T14 sequence (Q9UPQ7 414-513, limits assumed, looked up): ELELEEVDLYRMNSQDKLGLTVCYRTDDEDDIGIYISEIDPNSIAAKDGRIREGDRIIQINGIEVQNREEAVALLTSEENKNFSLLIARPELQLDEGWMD

SHROOM3, Q8TF72 = target: T15, SHROOM3, Q8TF72
T15 sequence (Q8TF72 20-120, limits assumed, looked up): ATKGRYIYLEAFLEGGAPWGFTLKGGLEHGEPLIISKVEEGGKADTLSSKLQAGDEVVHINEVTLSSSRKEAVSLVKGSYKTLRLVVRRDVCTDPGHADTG

Inadl_7, Q8NI35 = target: Inadl_7, Q8NI35
Sequence of Inadl_7, Q8NI35 (Q8NI35 1219-1332): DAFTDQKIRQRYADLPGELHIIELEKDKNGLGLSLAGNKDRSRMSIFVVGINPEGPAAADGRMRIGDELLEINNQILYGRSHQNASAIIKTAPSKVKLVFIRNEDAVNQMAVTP

PKTPPTDTSV [KIR3DL3, Q8N743]
pKd (SHROOM4, Q9ULL8): below the threshold
pKd (PDZD7_1, Q9H5P4): below the threshold
pKd (MAGI1_5, Q96QZ7): below the threshold
pKd (MPDZ_7, O75970): below the threshold
pKd (SCRIB_4, Q14160): below the threshold
pKd (MPP1, Q00013): below the threshold
pKd (PDZD4, Q76G19): 4.14
pKd (PARD3B_2, Q8TEW8): 4.37
pKd (PREX1_1, Q8TCU6): below the threshold
pKd (PDLIM3, Q53GG5): below the threshold
pKd (USH1C_1, Q9Y6N9): below the threshold
pKd (USH1C_3, Q9Y6N9): below the threshold
pKd (TJP3_1, O95049): below the threshold
pKd (IL16_2, Q14005): below the threshold
pKd (MPDZ_2, O75970): below the threshold
pKd (DVL1, O14640): below the threshold
pKd (PTPN13_2, Q12923): below the threshold
pKd (MPDZ_3, O75970): below the threshold
pKd (PTPN4, P29074): below the threshold
pKd (PDZRN3_2, Q9UPQ7): below the threshold
pKd (SHROOM3, Q8TF72): below the threshold

SRPQRTQTQV [HPV67-E6, A4U7F2]
pKd (SHROOM4, Q9ULL8): below the threshold
pKd (PDZD7_1, Q9H5P4): below the threshold
pKd (MAGI1_5, Q96QZ7): 4.35
pKd (MPDZ_7, O75970): below the threshold
pKd (SCRIB_4, Q14160): below the threshold
pKd (MPP1, Q00013): 5.26
pKd (PDZD4, Q76G19): below the threshold
pKd (PREX1_1, Q8TCU6): below the threshold
pKd (PDLIM3, Q53GG5): below the threshold
pKd (USH1C_1, Q9Y6N9): below the threshold
pKd (TJP3_1, O95049): below the threshold
pKd (IL16_2, Q14005): 4.25
pKd (MPDZ_2, O75970): below the threshold
pKd (DVL1, O14640): below the threshold
pKd (Inadl_7, Q8NI35): 4.46
pKd (PTPN13_2, Q12923): below the threshold
pKd (MPDZ_3, O75970): below the threshold
pKd (PTPN4, P29074): below the threshold
pKd (PDZRN3_2, Q9UPQ7): below the threshold
pKd (SHROOM3, Q8TF72): below the threshold

SSRTRRETQL [HPV16-E6, P03126]
pKd (SHROOM4, Q9ULL8): below the threshold
pKd (PDZD7_1, Q9H5P4): below the threshold
pKd (MAGI1_5, Q96QZ7): 4.69
pKd (MPDZ_7, O75970): 4.22
pKd (SCRIB_4, Q14160): below the threshold
pKd (MPP1, Q00013): below the threshold
pKd (PDZD4, Q76G19): below the threshold
pKd (PARD3B_2, Q8TEW8): below the threshold
pKd (PREX1_1, Q8TCU6): below the threshold
pKd (PDLIM3, Q53GG5): 3.88
pKd (USH1C_1, Q9Y6N9): below the threshold
pKd (USH1C_3, Q9Y6N9): below the threshold
pKd (TJP3_1, O95049): below the threshold
pKd (IL16_2, Q14005): below the threshold
pKd (MPDZ_2, O75970): below the threshold
pKd (DVL1, O14640): below the threshold
pKd (Inadl_7, Q8NI35): below the threshold
pKd (PTPN13_2, Q12923): below the threshold
pKd (MPDZ_3, O75970): below the threshold
pKd (PTPN4, P29074): 4.61
pKd (PDZRN3_2, Q9UPQ7): below the threshold
pKd (SHROOM3, Q8TF72): below the threshold
